Test results taken from patent publication US20230265179A1 (TWIST BIOSCIENCE, published 2023).

B1: IL1RL2-53 (VHH)
VHH: EVQLVESGGGLVQPGGSLRLSCAASGSTFSPNVMGWFRQAPGKEREFVAAITWSGSSTTEYADSVKGRFTISADNSKNTAYLQMNSLKPEDTAVYYCAAANEYWVYVNPNRYTWGQGTLVTVSS
notes: VHH-Fc based on IgG2 Fc
B2: IL1RL2-28 (VHH)
VHH: EVQLVESGGGLVQPGGSLRLSCAASGFTLNDYAMGWFRQAPGKEREWVSSINWSGSTYYADSVKGRFTISADNSKNTAYLQMNSLKPEDTAVYYCAKAYSSSWPYFDYWGQGTLVTVSS
notes: VHH-Fc based on IgG2 Fc
B3: IL1RL2-52 (VHH)
VHH: EVQLVESGGGLVQPGGSLRLSCAASGRTSTYDMGWFRQAPGKEREFVGAISWSGGLTSYADSVKGRFTISADNSKNTAYLQMNSLKPEDTAVYYCADVNGDWGQGTLVTVSS
notes: VHH-Fc based on IgG2 Fc
B4: IL1RL2-42 (VHH)
VHH: EVQLVESGGGLVQPGGSLRLSCAASGRTFSSYDMGWFRQAPGKEREFVAAIVWIGGRTYYADSVKGRFTISADNSKNTAYLQMNSLKPEDTAVYYCADVNGDWGQGTLVTVSS
notes: VHH-Fc based on IgG2 Fc
B5: IL1RL2-56 (VHH)
VHH: EVQLVESGGGLVQPGGSLRLSCAASGRTFSTYDMGWFRQAPGKEREFVAAISWGGGLTVYADSVKGRFTISADNSKNTAYLQMNSLKPEDTAVYYCADVNGDWGQGTLVTVSS
notes: VHH-Fc based on IgG2 Fc
B6: IL1RL2-44 (VHH)
VHH: EVQLVESGGGLVQPGGSLRLSCAASGRSFSTYDMGWFRQAPGKERELVAAISWSGGSTYYADSVKGRFTISADNSKNTAYLQMNSLKPEDTAVYYCADVNGDWGQGTLVTVSS
notes: VHH-Fc based on IgG2 Fc
B7: IL1RL2-48 (VHH)
VHH: EVQLVESGGGLVQPGGSLRLSCAASGRTFSSYDMGWFRQAPGKERELVAAITWNSGSTLYADSVKGRFTISADNSKNTAYLQMNSLKPEDTAVYYCADVNGDWGQGTLVTVSS
notes: VHH-Fc based on IgG2 Fc
B8: IL1RL2-46 (VHH)
VHH: EVQLVESGGGLVQPGGSLRLSCAASGFTLGDYVMGWFRQAPGKEREFVATIRWGTTDTYYADSVKGRFTISADNSKNTAYLQMNSLKPEDTAVYYCQSWYYDILTGYSDYYYMDVWGQGTLVTVSS
notes: VHH-Fc based on IgG2 Fc
B9: IL1RL2-156 (antibody, V domains shown)
VH: EVQLLESGGGLVQPGGSLRLSCAASGFTFSSYWNHWVRQAPGKGLEWVSTIGPSGTSTYYADSVKGRFTISRDNSKNTLYLQMNSLRAEDTAVYYCAKSTPNIPLAYWGQGTLVTVSS
VL: DIQMTQSPSSLSASVGDRVTITCRASQSIRRYLNWYQQKPGKAPKLLIYDASSSQSGVPSRFSGSGSGTDFTLTISSLQPEDFATYYCQQSTILPLTFGQGTKVEIK
notes: IgG2
B10: IL1RL2-55 (VHH)
VHH: EVQLVESGGGLVQPGGSLRLSCAASGYTDSNLWMGWFRQAPGKEREFVASIDWSGRSTYYADSVKGRFTISADNSKNTAYLQMNSLKPEDTAVYYCAANGIESYGWGNRHFNWGQGTLVTVSS
notes: VHH-Fc based on IgG2 Fc
B11: IL1RL2-13 (VHH)
VHH: EVQLVESGGGLVQPGGSLRLSCAASGYTDSNLWMGWFRQAPGKEREFVGSIDWIPSNIYYADSVKGRFTISADNSKNTAYLQMNSLKPEDTAVYYCAANGIESYGWGNRHFNWGQGTLVTVSS
notes: VHH-Fc based on IgG2 Fc
B12: IL1RL2-19 (VHH)
VHH: EVQLVESGGGLVQPGGSLRLSCAASGYTDSNLWMGWFRQAPGKEREFVASVNWSGKDTYYADSVKGRFTISADNSKNTAYLQMNSLKPEDTAVYYCAANGIESYGWGNRHFNWGQGTLVTVSS
notes: VHH-Fc based on IgG2 Fc
B13: IL1RL2-40 (VHH)
VHH: EVQLVESGGGLVQPGGSLRLSCAASGFTFSTYTMGWFRQAPGKEREFVAGIAWNGASGTLTSYADSVKGRFTISADNSKNTAYLQMNSLKPEDTAVYYCASAGRWGQGTLVTVSS
notes: VHH-Fc based on IgG2 Fc
B14: IL1RL2-10 (VHH)
VHH: EVQLVESGGGLVQPGGSLRLSCAASGFTFSNHIMGWFRQAPGKEREWVSGINRDGSTSYADSVKGRFTISADNSKNTAYLQMNSLKPEDTAVYYCAKARQITGWDFDYWGQGTLVTVSS
notes: VHH-Fc based on IgG2 Fc
B15: IL1RL2-38 (VHH)
VHH: EVQLVESGGGLVQPGGSLRLSCAASGRSRYGMGWFRQAPGKEREFVAAINWNGASTYYADSVKGRFTISADNSKNTAYLQMNSLKPEDTAVYYCAVSQPLNYYTYYDARRYDWGQGTLVTVSS
notes: VHH-Fc based on IgG2 Fc
B16: IL1RL2-51 (VHH)
VHH: EVQLVESGGGLVQPGGSLRLSCAASGFTFSPSWMGWFRQAPGKEREWVSSIDYSAEDTYYADSVKGRFTISADNSKNTAYLQMNSLKPEDTAVYYCAAFDGYSGSDWGQGTLVTVSS
B17: IL1RL2-45 (VHH)
VHH: EVQLVESGGGLVQPGGSLRLSCAASGFDFSVSWMGWFRQAPGKEREFVGSIDWITTNIYYADSVKGRFTISADNSKNTAYLQMNSLKPEDTAVYYCAANIEAGTTKSQGWGQGTLVTVSS
notes: VHH-Fc based on IgG2 Fc
B18: IL1RL2-16 (VHH)
VHH: EVQLVESGGGLVQPGGSLRLSCAASGSDFSIKAMGWFRQAPGKEREFVADIYTSTTTNYTNYADSVKGRFTISADNSKNTAYLQMNSLKPEDTAVYYCAAIAYEEGVYRWDWGQGTLVTVSS
notes: VHH-Fc based on IgG2 Fc
B19: IL1RL2-32 (VHH)
VHH: EVQLVESGGGLVQPGGSLRLSCAASGNDFSIKAMGWFRQAPGKEREFVADIYTSTTTNYTNYADSVKGRFTISADNSKNTAYLQMNSLKPEDTAVYYCAAIAHEEGVYRWDWGQGTLVTVSS
notes: VHH-Fc based on IgG2 Fc
B20: IL1RL2-26 (VHH)
VHH: EVQLVESGGGLVQPGGSLRLSCAASGSIFSIYDMGWFRQAPGKEREFVAAISGWSGGRTSYADSVKGRFTISADNSKNTAYLQMNSLKPEDTAVYYCAAIAYEEGVYRWDWGQGTLVTVSS
notes: VHH-Fc based on IgG2 Fc
B21: IL1RL2-33 (VHH)
VHH: EVQLVESGGGLVQPGGSLRLSCAASGRSFNLYYMGWFRQAPGKEREFVASIFTDDGDSYYADSVKGRFTISADNSKNTAYLQMNSLKPEDTAVYYCAAGAGWAGTMTDYNWGQGTLVTVSS
notes: VHH-Fc based on IgG2 Fc
B22: IL1RL2-21 (VHH)
VHH: EVQLVESGGGLVQPGGSLRLSCAASGRTFSRYAMGWFRQAPGKEREFVAAINWSGDRTYYADSVKGRFTISADNSKNTAYLQMNSLKPEDTAVYYCAVSQPLNYYTYYDARRYDWGQGTLVTVSS
notes: VHH-Fc based on IgG2 Fc
B23: IL1RL2-36 (VHH)
VHH: EVQLVESGGGLVQPGGSLRLSCAASGRTYNSYSMGWFRQAPGKEREFVAAISWSGEHTYYADSVKGRFTISADNSKNTAYLQMNSLKPEDTAVYYCAVSQPLNYYTYYDARRYDWGQGTLVTVSS
notes: VHH-Fc based on IgG2 Fc
B24: IL1RL2-43 (VHH)
VHH: EVQLVESGGGLVQPGGSLRLSCAASGGTFSRYAMGWFRQAPGKEREFVAAISWSGANTYYADSVKGRFTISADNSKNTAYLQMNSLKPEDTAVYYCAVSQPLNYYTYYDARRYDWGQGTLVTVSS
notes: VHH-Fc based on IgG2 Fc
B25: IL1RL2-37 (VHH)
VHH: EVQLVESGGGLVQPGGSLRLSCAASGGAFSTVAMGWFRQAPGKEREFVAAISWSRGRTFYADSVKGRFTISADNSKNTAYLQMNSLKPEDTAVYYCAVSQPLNYYTYYDARRYDWGQGTLVTVSS
notes: VHH-Fc based on IgG2 Fc
B26: IL1RL2-41 (VHH)
VHH: EVQLVESGGGLVQPGGSLRLSCAASGGTFSRYAMGWFRQAPGKEREFVAAVNWSGARTYYADSVKGRFTISADNSKNTAYLQMNSLKPEDTAVYYCAVSQPLNYYTYYDARRYDWGQGTLVTVSS
notes: VHH-Fc based on IgG2 Fc
B27: IL1RL2-47 (VHH)
VHH: EVQLVESGGGLVQPGGSLRLSCAASGGTFSNYAMGWFRQAPGKEREFVAAIGGVTDYADSVKGRFTISADNSKNTAYLQMNSLKPEDTAVYYCAAFAYEEGVYRWDWGQGTLVTVSS
notes: VHH-Fc based on IgG2 Fc
B28: IL1RL2-50 (VHH)
VHH: EVQLVESGGGLVQPGGSLRLSCAASGSIFSIDAMGWFRQAPGKERESVAIIKTDGSTYYADSVKGRFTISADNSKNTAYLQMNSLKPEDTAVYYCAHRLGYCSGGSCYWPNYFDYWGQGTLVTVSS
notes: VHH-Fc based on IgG2 Fc

Target: T1, IL1RL2 over-expressed on Expi293 cells (UniProt Q9HB29 20-575, limits assumed)
T1 construct: whole, on cells; Target of the flow cytometry assay; MFI ratio is over-expressing cells over parent cells
T1 sequence (looked up): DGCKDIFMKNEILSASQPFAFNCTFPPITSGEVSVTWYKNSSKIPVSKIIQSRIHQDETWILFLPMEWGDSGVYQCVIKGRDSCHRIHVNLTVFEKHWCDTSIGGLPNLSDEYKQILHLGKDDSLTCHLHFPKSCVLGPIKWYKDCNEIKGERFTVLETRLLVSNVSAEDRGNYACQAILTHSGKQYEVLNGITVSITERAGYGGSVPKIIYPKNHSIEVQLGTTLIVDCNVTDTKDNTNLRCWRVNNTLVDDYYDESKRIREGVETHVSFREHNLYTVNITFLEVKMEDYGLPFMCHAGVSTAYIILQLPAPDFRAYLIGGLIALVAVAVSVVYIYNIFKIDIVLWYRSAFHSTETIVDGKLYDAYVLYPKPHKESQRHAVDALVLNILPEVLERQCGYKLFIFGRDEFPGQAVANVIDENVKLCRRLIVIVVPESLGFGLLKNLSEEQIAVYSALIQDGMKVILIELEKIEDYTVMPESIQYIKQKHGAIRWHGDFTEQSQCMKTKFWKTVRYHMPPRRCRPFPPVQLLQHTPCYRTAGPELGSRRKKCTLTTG
Assay: flow cytometry, over-expressing Expi293 vs parent cells, 100 nM antibody;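 also: ratio is mean fluorescence intensity on over-expressing Expi293 cells divided by that measured on parental Expi293 cells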
Procedure: All incubations and washes were in buffer containing PBS+1% BSA. MFI Ratio is defined by the mean fluorescence intensity (MFI) of the cytokine over-expressing Expi293 cell over the Expi293 parent cell. […] EC50 was calculated in GraphPad Prism.

**Q.** For B1, which “100 nM FACS (MFI Ratio)” value is on record?
**A.** 4.14

**Q.** For B2, which “100 nM FACS (MFI Ratio)” value is on record?
**A.** 13.6

**Q.** Which “100 nM FACS (MFI Ratio)” value does the source give for B3 here?
**A.** 6.88

**Q.** Which “100 nM FACS (MFI Ratio)” value does the source give for B4 here?
**A.** 2.47

**Q.** For B5, which “100 nM FACS (MFI Ratio)” value is on record?
**A.** 3.83

**Q.** B6 was tested. Which “100 nM FACS (MFI Ratio)” value did it give?
**A.** 0.95

**Q.** With B7 as the binder, how does the “100 nM FACS (MFI Ratio)” value read?
**A.** 7.83

**Q.** Which “100 nM FACS (MFI Ratio)” value does the source give for B8 here?
**A.** 15.6

**Q.** B9 was tested. Which “100 nM FACS (MFI Ratio)” value did it give?
**A.** 0.69

**Q.** B10 was tested. Which “100 nM FACS (MFI Ratio)” value did it give?
**A.** 49.7

**Q.** How did the “100 nM FACS (MFI Ratio)” value turn out when B11 was run?
**A.** 11.3

**Q.** Which “100 nM FACS (MFI Ratio)” value does the source give for B12 here?
**A.** 13.8

**Q.** Which “100 nM FACS (MFI Ratio)” value does the source give for B13 here?
**A.** 31

**Q.** Which “100 nM FACS (MFI Ratio)” value does the source give for B14 here?
**A.** 12.7

**Q.** Which “100 nM FACS (MFI Ratio)” value does the source give for B15 here?
**A.** 7.41

**Q.** Which “100 nM FACS (MFI Ratio)” value does the source give for B16 here?
**A.** 9.68

**Q.** B17 was tested. Which “100 nM FACS (MFI Ratio)” value did it give?
**A.** 6.82

**Q.** Which “100 nM FACS (MFI Ratio)” value does the source give for B18 here?
**A.** 37.6

**Q.** Which “100 nM FACS (MFI Ratio)” value does the source give for B19 here?
**A.** 20.1

**Q.** How did the “100 nM FACS (MFI Ratio)” value turn out when B20 was run?
**A.** 39.5

**Q.** How did the “100 nM FACS (MFI Ratio)” value turn out when B21 was run?
**A.** 15.2

**Q.** For B22, which “100 nM FACS (MFI Ratio)” value is on record?
**A.** 20.9

**Q.** B23 was tested. Which “100 nM FACS (MFI Ratio)” value did it give?
**A.** 14

**Q.** With B24 as the binder, how does the “100 nM FACS (MFI Ratio)” value read?
**A.** 1.62

**Q.** With B25 as the binder, how does the “100 nM FACS (MFI Ratio)” value read?
**A.** 16.9

**Q.** B26 was tested. Which “100 nM FACS (MFI Ratio)” value did it give?
**A.** 5.33

**Q.** B27 was tested. Which “100 nM FACS (MFI Ratio)” value did it give?
**A.** 13.2

**Q.** Which “100 nM FACS (MFI Ratio)” value does the source give for B28 here?
**A.** 151
